Measurements published in the supplement of paper PMC9112550, “Optimization of the antimicrobial peptide Bac7 by deep mutational scanning” (BMC Biology, 2022).

test system: Escherichia coli TOP10; assay: shrunken log2 fold change of peptide-encoding DNA abundance (4.5 h post-induction vs induction); higher = less antimicrobial activity (less host growth inhibition); conditions: time post-induction: 4.5 h; library: site-saturation at positions 5, 18, 19, 20
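Also: peptides expressed intracellularly from a pBAD plasmid library in pooled LB shake-flask culture, induced with 0.3% L-arabinose, DNA abundance read by NGS, three biological replicates, DESeq2 with apeglm shrinkage.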

Sequence | shrunken log2 fold change
RRIRSRPPRLPRPRPRPSKAPRP | -0.0678
RRIRSRPPRLPRPRPRPSLVPRP | -0.345
RRIRSRPPRLPRPRPRPSMQPRP | -0.242
RRIRSRPPRLPRPRPRPSNLPRP | -0.193
RRIRSRPPRLPRPRPRPSPFPRP | -0.191
RRIRSRPPRLPRPRPRPSPRPRP | 0.217
RRIRSRPPRLPRPRPRPSQVPRP | -0.323
RRIRSRPPRLPRPRPRPSREPRP | -0.173
RRIRSRPPRLPRPRPRPSRTPRP | 0.822
RRIRSRPPRLPRPRPRPSTQPRP | 2.48
RRIRSRPPRLPRPRPRPSVWPRP | 0.0903
RRIRSRPPRLPRPRPRPSYEPRP | -0.426
RRIRSRPPRLPRPRPRPSYWPRP | 2.29
RRIRSRPPRLPRPRPRPTAGPRP | 0.679
RRIRSRPPRLPRPRPRPTDKPRP | -0.242
RRIRSRPPRLPRPRPRPTDLPRP | -0.464
RRIRSRPPRLPRPRPRPTEAPRP | 0.0706
RRIRSRPPRLPRPRPRPTEWPRP | 0.00483
RRIRSRPPRLPRPRPRPTFRPRP | -0.0691
RRIRSRPPRLPRPRPRPTHMPRP | 0.188
RRIRSRPPRLPRPRPRPTHPPRP | 0.298
RRIRSRPPRLPRPRPRPTIFPRP | -0.377
RRIRSRPPRLPRPRPRPTIMPRP | -0.508
RRIRSRPPRLPRPRPRPTIPPRP | -0.104
RRIRSRPPRLPRPRPRPTKPPRP | 0.196

Sequence | shrunken log2 fold change
RRIRSRPPRLPRPRPRPTLFPRP | 0.206
RRIRSRPPRLPRPRPRPTNAPRP | -0.0746
RRIRSRPPRLPRPRPRPTNNPRP | -0.455
RRIRSRPPRLPRPRPRPTPSPRP | 0.376
RRIRSRPPRLPRPRPRPTPWPRP | 0.349
RRIRSRPPRLPRPRPRPTQSPRP | 0.449
RRIRSRPPRLPRPRPRPTRFPRP | 0.2
RRIRSRPPRLPRPRPRPTRIPRP | -0.0163
RRIRSRPPRLPRPRPRPTSQPRP | 0.0259
RRIRSRPPRLPRPRPRPTSSPRP | -0.296
RRIRSRPPRLPRPRPRPTVVPRP | -0.112
RRIRSRPPRLPRPRPRPTWCPRP | 0.18
RRIRSRPPRLPRPRPRPVAYPRP | -0.0936
RRIRSRPPRLPRPRPRPVCFPRP | 0.156
RRIRSRPPRLPRPRPRPVDKPRP | -0.175
RRIRSRPPRLPRPRPRPVDNPRP | -0.493
RRIRSRPPRLPRPRPRPVDYPRP | -0.268
RRIRSRPPRLPRPRPRPVENPRP | 0.0506
RRIRSRPPRLPRPRPRPVESPRP | -0.0897
RRIRSRPPRLPRPRPRPVFVPRP | -0.00419
RRIRSRPPRLPRPRPRPVHPPRP | 0.245
RRIRSRPPRLPRPRPRPVHYPRP | -0.707
RRIRSRPPRLPRPRPRPVIQPRP | -0.178
RRIRSRPPRLPRPRPRPVKNPRP | 0.291
RRIRSRPPRLPRPRPRPVLSPRP | 0.0825

Sequence | shrunken log2 fold change
RRIRSRPPRLPRPRPRPVLWPRP | 0.657
RRIRSRPPRLPRPRPRPVNGPRP | -0.00994
RRIRSRPPRLPRPRPRPVNHPRP | -0.462
RRIRSRPPRLPRPRPRPVPYPRP | -0.248
RRIRSRPPRLPRPRPRPVQVPRP | 0.159
RRIRSRPPRLPRPRPRPVRCPRP | 0.221
RRIRSRPPRLPRPRPRPVRSPRP | 0.255
RRIRSRPPRLPRPRPRPVRVPRP | 0.743
RRIRSRPPRLPRPRPRPVSRPRP | -0.0166
RRIRSRPPRLPRPRPRPVTCPRP | -0.299
RRIRSRPPRLPRPRPRPVVGPRP | 0.267
RRIRSRPPRLPRPRPRPVVSPRP | 0.151
RRIRSRPPRLPRPRPRPVVVPRP | 0.1
RRIRSRPPRLPRPRPRPVWDPRP | -0.143
RRIRSRPPRLPRPRPRPVYAPRP | 0.0491
RRIRSRPPRLPRPRPRPVYHPRP | 0.0286
RRIRSRPPRLPRPRPRPVYMPRP | -0.461
RRIRSRPPRLPRPRPRPVYWPRP | -0.175
RRIRSRPPRLPRPRPRPWCDPRP | -0.238
RRIRSRPPRLPRPRPRPWCGPRP | 0.0715
RRIRSRPPRLPRPRPRPWCTPRP | -0.255
RRIRSRPPRLPRPRPRPWFWPRP | 0.326
RRIRSRPPRLPRPRPRPWGVPRP | -0.412
RRIRSRPPRLPRPRPRPWHEPRP | -0.103
RRIRSRPPRLPRPRPRPWHFPRP | -0.0226

Sequence | shrunken log2 fold change
RRIRSRPPRLPRPRPRPWLLPRP | -0.337
RRIRSRPPRLPRPRPRPWMHPRP | -0.0312
RRIRSRPPRLPRPRPRPWMPPRP | -0.433
RRIRSRPPRLPRPRPRPWNIPRP | -0.0599
RRIRSRPPRLPRPRPRPWPFPRP | 0.0554
RRIRSRPPRLPRPRPRPWPHPRP | -0.0676
RRIRSRPPRLPRPRPRPWQGPRP | 0.0115
RRIRSRPPRLPRPRPRPWRKPRP | 0.0156
RRIRSRPPRLPRPRPRPWSCPRP | 0.194
RRIRSRPPRLPRPRPRPWSDPRP | -0.164
RRIRSRPPRLPRPRPRPWSEPRP | -0.196
RRIRSRPPRLPRPRPRPWSHPRP | -0.174
RRIRSRPPRLPRPRPRPWSPPRP | -0.1
RRIRSRPPRLPRPRPRPWVCPRP | 0.101
RRIRSRPPRLPRPRPRPWWTPRP | -0.127
RRIRSRPPRLPRPRPRPYAMPRP | -0.909
RRIRSRPPRLPRPRPRPYATPRP | -0.192
RRIRSRPPRLPRPRPRPYDAPRP | -0.557
RRIRSRPPRLPRPRPRPYDDPRP | 0.0208
RRIRSRPPRLPRPRPRPYETPRP | -0.181
RRIRSRPPRLPRPRPRPYFSPRP | -0.611
RRIRSRPPRLPRPRPRPYHAPRP | -8.39e-05
RRIRSRPPRLPRPRPRPYHHPRP | -0.511
RRIRSRPPRLPRPRPRPYIIPRP | -0.502
RRIRSRPPRLPRPRPRPYKCPRP | -0.137

Sequence | shrunken log2 fold change
RRIRSRPPRLPRPRPRPYMFPRP | -0.648
RRIRSRPPRLPRPRPRPYMGPRP | -0.776
RRIRSRPPRLPRPRPRPYNVPRP | 0.00567
RRIRSRPPRLPRPRPRPYQHPRP | -0.934
RRIRSRPPRLPRPRPRPYRDPRP | -0.128
RRIRSRPPRLPRPRPRPYTFPRP | -1.01
RRIRSRPPRLPRPRPRPYVFPRP | -0.545
RRIRSRPPRLPRPRPRPYVQPRP | -0.024
RRIRSRPPRLPRPRPRPYWEPRP | -0.0147
RRIRSRPPRLPRPRPRPYWKPRP | -0.144
RRIRSRPPRLPRPRPRPYYEPRP | -0.628
RRIRSRPPRLPRPRPRPYYPPRP | -2.8
RRIRTRPPRLPRPRPRPACDPRP | 0.139
RRIRTRPPRLPRPRPRPACIPRP | 0.599
RRIRTRPPRLPRPRPRPADAPRP | -0.0445
RRIRTRPPRLPRPRPRPADDPRP | 0.165
RRIRTRPPRLPRPRPRPADWPRP | 0.446
RRIRTRPPRLPRPRPRPAELPRP | 0.112
RRIRTRPPRLPRPRPRPAFAPRP | 0.282
RRIRTRPPRLPRPRPRPAFFPRP | 0.0542
RRIRTRPPRLPRPRPRPAFLPRP | 0.228
RRIRTRPPRLPRPRPRPAGIPRP | -0.0928
RRIRTRPPRLPRPRPRPAGQPRP | -0.109
RRIRTRPPRLPRPRPRPAGVPRP | 0.107
RRIRTRPPRLPRPRPRPAICPRP | -0.552

Sequence | shrunken log2 fold change
RRIRTRPPRLPRPRPRPAIMPRP | -0.0824
RRIRTRPPRLPRPRPRPAKAPRP | -0.0213
RRIRTRPPRLPRPRPRPAKEPRP | -0.0337
RRIRTRPPRLPRPRPRPAKQPRP | -0.0125
RRIRTRPPRLPRPRPRPAKTPRP | 0.117
RRIRTRPPRLPRPRPRPALWPRP | 0.213
RRIRTRPPRLPRPRPRPAMHPRP | 0.289
RRIRTRPPRLPRPRPRPAMIPRP | -0.0108
RRIRTRPPRLPRPRPRPAPGPRP | 0.544
RRIRTRPPRLPRPRPRPAPLPRP | 0.368
RRIRTRPPRLPRPRPRPARHPRP | 0.189
RRIRTRPPRLPRPRPRPARSPRP | 0.0134
RRIRTRPPRLPRPRPRPASAPRP | 0.916
RRIRTRPPRLPRPRPRPATIPRP | -0.0446
RRIRTRPPRLPRPRPRPAVPPRP | 0.0514
RRIRTRPPRLPRPRPRPAYFPRP | 0.0144
RRIRTRPPRLPRPRPRPCAMPRP | -0.111
RRIRTRPPRLPRPRPRPCDFPRP | 0.042
RRIRTRPPRLPRPRPRPCEYPRP | -0.0254
RRIRTRPPRLPRPRPRPCFDPRP | -0.0899
RRIRTRPPRLPRPRPRPCFMPRP | -0.153
RRIRTRPPRLPRPRPRPCGDPRP | 0.176
RRIRTRPPRLPRPRPRPCGWPRP | 0.0147
RRIRTRPPRLPRPRPRPCHMPRP | -0.0872
RRIRTRPPRLPRPRPRPCHTPRP | -0.166
